The record followed here is PMC10144703, “Molecular Mechanism of Sirtuin 1 Inhibition by Human Immunodeficiency Virus 1 Tat Protein” (Life, 2023).

Where no end group is shown, it is not given here.

For this test, the target named is human mini-Sirt1 (aa 183-505-(GGGS)2-641-665) (human) (UniProt Q96EB6).
Sequence of human mini-Sirt1 (aa 183-505-(GGGS)2-641-665) (human) (Q96EB6 other isoform, or with tags, fused parts or gaps): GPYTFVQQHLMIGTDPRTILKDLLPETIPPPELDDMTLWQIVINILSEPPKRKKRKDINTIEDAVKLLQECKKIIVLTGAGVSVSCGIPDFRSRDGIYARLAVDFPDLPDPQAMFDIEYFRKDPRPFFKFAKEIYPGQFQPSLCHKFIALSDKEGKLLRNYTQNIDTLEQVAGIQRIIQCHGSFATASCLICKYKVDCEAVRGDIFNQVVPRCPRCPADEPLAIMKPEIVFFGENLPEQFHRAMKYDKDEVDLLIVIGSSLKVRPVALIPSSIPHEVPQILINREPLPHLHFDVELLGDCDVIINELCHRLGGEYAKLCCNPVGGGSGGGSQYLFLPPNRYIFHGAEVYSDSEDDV

B1: Tat-46–54 (non-acetylated) (peptide)
peptide: SYGRKKRRQ
modifications: not fully specified
On to B1, for which the inhibition of mini-Sirt1 in the FdL assay; IC50 came to 131 µM.
